Tested on: Fct4 protein (Sendai virus F protein with truncated cytoplasmic domain), uncleaved

trypsin-like enzyme TrypLE
cleavage of Fct4 shown by Western blotting: incubation with a trypsin-like enzyme successfully cleaves Fct4

Reference: patent US20240082327
